Assay results published in patent US20180086790A1.

Target: pheromone-biosynthesis-activating neuropeptide receptor (fire ant PBAN-R) (fire ant (Solenopsis invicta))
Experiment: phage display selection on Sf9 cells expressing PBAN-R, 3-4 rounds; count of sequenced clones

**Q.** With CRGATPMSC (Cysteine-Cysteine S-S bond at the N- and C-terminal ends) [… (SEQ ID NO: 12)] as the molecule, how does the Abundance of phage clones read?
**A.** Its Abundance of phage clones is 2 clones.

**Q.** For CIVQGSHFC (loop-constrained by a pair of flanking cysteine (C) residues) [… (SEQ ID NO: 7)], which Abundance of phage clones is on record?
**A.** The Abundance of phage clones was 2 clones.

**Q.** How did the Abundance of phage clones turn out when CQSINGHFC (loop-constrained by a pair of flanking cysteine (C) residues) [… (SEQ ID NO: 8)] was run?
**A.** Its Abundance of phage clones is 2 clones.

**Q.** How did the Abundance of phage clones turn out when CLKIGSHFC (Cysteine-Cysteine S-S bond at the N- and C-terminal ends) [… (SEQ ID NO: 3)] was run?
**A.** The Abundance of phage clones was 7 clones.

**Q.** CVKQGTHFC (loop-constrained by a pair of flanking cysteine (C) residues) [… (SEQ ID NO: 9)] was tested. Which Abundance of phage clones did it give?
**A.** The Abundance of phage clones was 2 clones.

**Q.** CIQQGSHFC (loop-constrained by a pair of flanking cysteine (C) residues) [… (SEQ ID NO: 4)] was tested. Which Abundance of phage clones did it give?
**A.** The Abundance of phage clones was 3 clones.

**Q.** CIVQGSHFC (loop-constrained by a pair of flanking cysteine (C) residues) [… (SEQ ID NO: 10)] was tested. Which Abundance of phage clones did it give?
**A.** The Abundance of phage clones was 2 clones.

**Q.** CERVGSHFC (loop-constrained by a pair of flanking cysteine (C) residues) [… (SEQ ID NO: 5)] was tested. Which Abundance of phage clones did it give?
**A.** Its Abundance of phage clones is 3 clones.

**Q.** With CMARYMSAC (Cysteine-Cysteine S-S bond at the N- and C-terminal ends) [… (SEQ ID NO: 11)] as the molecule, how does the Abundance of phage clones read?
**A.** The Abundance of phage clones was 2 clones.

**Q.** With CVKLGSHFC (Cysteine-Cysteine S-S bond at the N- and C-terminal ends) [… (SEQ ID NO: 6)] as the molecule, how does the Abundance of phage clones read?
**A.** Its Abundance of phage clones is 2 clones.

Target: pheromone-biosynthesis-activating neuropeptide receptor (fire ant PBAN-R) (fire ant (Solenopsis invicta))
Experiment: as above
Remark: another data set of the same source

**Q.** TQIGTHF (SEQ ID NO: 17) (peptide) was tested. Which Abundance of phage clones did it give?
**A.** Its Abundance of phage clones is 1 clones.

**Q.** How did the Abundance of phage clones turn out when HSRVSGT (SEQ ID NO: 21) (peptide) was run?
**A.** Its Abundance of phage clones is 1 clones.

**Q.** How did the Abundance of phage clones turn out when IHXGTHF (SEQ ID NO: 22) (peptide) was run?
**A.** The Abundance of phage clones was 1 clones.

**Q.** Which Abundance of phage clones does the source give for NTGSPYE (SEQ ID NO: 36) (peptide) here?
**A.** The Abundance of phage clones was 1 clones.

**Q.** How did the Abundance of phage clones turn out when NTGGSMA (SEQ ID NO: 35) (peptide) was run?
**A.** The Abundance of phage clones was 1 clones.

**Q.** With LPMTKHV (SEQ ID NO: 30) (peptide) as the molecule, how does the Abundance of phage clones read?
**A.** Its Abundance of phage clones is 1 clones.

**Q.** With ERVGTHY (SEQ ID NO: 24) (peptide) as the molecule, how does the Abundance of phage clones read?
**A.** The Abundance of phage clones was 1 clones.

**Q.** YSSPSHF (SEQ ID NO: 23) (peptide) was tested. Which Abundance of phage clones did it give?
**A.** The Abundance of phage clones was 1 clones.

**Q.** How did the Abundance of phage clones turn out when IKVGPHY (SEQ ID NO: 25) (peptide) was run?
**A.** The Abundance of phage clones was 1 clones.

**Q.** LPWQIHN (SEQ ID NO: 29) (peptide) was tested. Which Abundance of phage clones did it give?
**A.** Its Abundance of phage clones is 1 clones.

**Q.** SQLPWYS (SEQ ID NO: 34) (peptide) was tested. Which Abundance of phage clones did it give?
**A.** The Abundance of phage clones was 1 clones.

**Q.** Which Abundance of phage clones does the source give for QQTKNYY (SEQ ID NO: 32) (peptide) here?
**A.** Its Abundance of phage clones is 1 clones.

**Q.** Which Abundance of phage clones does the source give for ERVGTHF (SEQ ID NO: 20) (peptide) here?
**A.** The Abundance of phage clones was 1 clones.

**Q.** For TNGDSAR (SEQ ID NO: 33) (peptide), which Abundance of phage clones is on record?
**A.** Its Abundance of phage clones is 1 clones.

**Q.** How did the Abundance of phage clones turn out when TNANHYF (SEQ ID NO: 31) (peptide) was run?
**A.** The Abundance of phage clones was 1 clones.

**Q.** VSRTSHL (SEQ ID NO: 28) (peptide) was tested. Which Abundance of phage clones did it give?
**A.** Its Abundance of phage clones is 1 clones.

**Q.** Which Abundance of phage clones does the source give for QSIGTHF (SEQ ID NO: 19) (peptide) here?
**A.** The Abundance of phage clones was 1 clones.

**Q.** With IKIGSHY (SEQ ID NO: 26) (peptide) as the molecule, how does the Abundance of phage clones read?
**A.** The Abundance of phage clones was 1 clones.

**Q.** How did the Abundance of phage clones turn out when IQIGTHF (SEQ ID NO: 18) (peptide) was run?
**A.** Its Abundance of phage clones is 1 clones.

**Q.** Which Abundance of phage clones does the source give for TXVGSHF (SEQ ID NO: 15) (peptide) here?
**A.** Its Abundance of phage clones is 1 clones.

**Q.** For QRIGLHY (SEQ ID NO: 27) (peptide), which Abundance of phage clones is on record?
**A.** The Abundance of phage clones was 1 clones.

**Q.** IHIGSHF (SEQ ID NO: 16) (peptide) was tested. Which Abundance of phage clones did it give?
**A.** Its Abundance of phage clones is 1 clones.
